# Substitutions are numbered along the chain they refer to. In names and notes the source's numbering stands.
# T1: rice OsHSL1 (SEQ ID NO: 1) mutant OsHSL1_L204F/F298L/I335A (Oryza sativa, UniProt A0A7G1K9G4, F298L/I335A/L204F)
# T1 construct: isolated enzyme, HPLC assay; I335A may be a misprint of I335F
# T1 sequence (A0A7G1K9G4 1-350 L204F/F298L/I335A): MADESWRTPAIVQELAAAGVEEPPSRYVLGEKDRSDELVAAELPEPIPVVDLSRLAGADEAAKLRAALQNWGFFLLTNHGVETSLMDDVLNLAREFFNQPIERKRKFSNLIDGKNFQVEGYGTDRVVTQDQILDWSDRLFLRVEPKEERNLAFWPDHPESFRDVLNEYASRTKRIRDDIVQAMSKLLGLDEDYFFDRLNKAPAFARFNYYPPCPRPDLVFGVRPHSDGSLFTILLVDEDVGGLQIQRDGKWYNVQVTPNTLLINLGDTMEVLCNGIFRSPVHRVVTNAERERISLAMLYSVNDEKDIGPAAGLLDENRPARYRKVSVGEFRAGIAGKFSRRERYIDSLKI
# B1: rice OsHIS1 wild type, SEQ ID NO: 2 (Oryza sativa Japonica Group) (protein)
# chain: MADESWRAPAIVQELAAAGVEEPPSRYLLREKDRSDVKLVAAELPEPLPVVDLSRLDGAEEATKLRVALQNWGFFLLTNHGVEASLMDSVMNLSREFFNQPIERKQKFSNLIDGKNFQIQGYGTDRVVTQDQILDWSDRLHLRVEPKEEQDLAFWPDHPESFRDVLNKYASGTKRIRDDIIQAMAKLLELDEDYFLDRLNEAPAFARFNYYPPCPRPDLVFGIRPHSDGTLLTILLVDKDVSGLQVQRDGKWSNVEATPHTLLINLGDTMEVMCNGIFRSPVHRVVTNAEKERISLAMLYSVNDEKDIEPAAGLLDENRPARYRKVSVEEFRAGIFGKFSRGERYIDSLRI
# notes: isolated enzyme, HPLC substrate-consumption assay with Fe(II), ascorbate and 2-oxoglutarate
# B2: rice OsHSL1 wild type, SEQ ID NO: 1 (Oryza sativa Japonica Group) (protein)
# chain: T1 sequence (A0A7G1K9G4 1-350 L204F/F298L/I335A) with F204L, L298F, A335I
# notes: as for B1
# B3: OsHSL1_I335F: SEQ ID NO.1 with the isoleucine at site 335 mutated to phenylalanine (protein, listed as Oryza sativa)
# chain: T1 sequence (A0A7G1K9G4 1-350 L204F/F298L/I335A) with F204L, L298F, A335F
# B4: OsHSL1_L204F/F298L/I335A: three-point mutant OsHSL1_L204F/F298L/I335A containing I335; not listed in Table 2 (protein)
# chain: T1 sequence (A0A7G1K9G4 1-350 L204F/F298L/I335A)
# B5: OsHSL1_L204F/F298L/I335F: SEQ ID NO.1 with L204 to phenylalanine, F298 to leucine, I335 to phenylalanine (protein, listed as Oryza sativa)
# chain: T1 sequence (A0A7G1K9G4 1-350 L204F/F298L/I335A) with A335F
# B6: OsHSL1_F140H/L204F/F298L/I335W: SEQ ID NO.1 with F140 to histidine, L204 to phenylalanine, F298 to leucine, I335 to tryptophan (protein)
# chain: T1 sequence (A0A7G1K9G4 1-350 L204F/F298L/I335A) with F140H, A335W
# B7: OsHSL1_F140H/L204F/I335F: SEQ ID NO.1 with F140 to histidine, L204 to phenylalanine, I335 to phenylalanine (protein)
# chain: T1 sequence (A0A7G1K9G4 1-350 L204F/F298L/I335A) with F140H, L298F, A335F
# Legend:
# [1] = biological target: T2, rice OsHSL1 (SEQ ID NO: 1) mutant OsHSL1_F140H/L204F/F298L/I335A (Oryza sativa, UniProt A0A7G1K9G4, F140H/F298L/I335A/L204F); experiment: Enzyme kinetic parameters with HPPD inhibitors as substrate (HPLC); format: biochemical; conditions: compared with OsHSL1 wild type; close to the OsHIS1 wild type
# T2 construct: isolated enzyme, HPLC assay
# Source text: (§1) High Performance Liquid Chromatography (HPLC) was used to test OsHIS1 wild-type protein (the amino acid sequence of OsHIS1 wild-type is shown as SEQ ID NO 2, and the corresponding nucleotide sequence is shown as SEQ ID NO 21), the enzyme kinetic parameters of OsHSL1 wild-type protein and some OsHSL1 mutant proteins with higher reactivity and HPPD inhibitors, and the specific results are shown in Table 9-Table 12. […] Each sample was replicated three times. • e.
# [2] = biological target: T1, rice OsHSL1 (SEQ ID NO: 1) mutant OsHSL1_L204F/F298L/I335A; experiment: as above; format: biochemical
# Source text: as §1
# [3] = tested on: Cc1c(C(=O)c2cnn(C)c2O)ccc(S(C)(=O)=O)c1C1=NOCC1; experiment: as above; format: biochemical, rice; conditions: other: pH 7.0, 30° C., about 20 min
# Source text: as §1
# [4] = tested on: Cc1ccccc1-n1c(=O)c2c(C)c(C(=O)C3=C(O)CCCC3=O)ccc2n(C)c1=O; experiment: as above; format: biochemical, rice; conditions: other: pH 7.0, 30° C., about 20 min
# Source text: as §1
# [5] = tested on: CS(=O)(=O)c1ccc(C(=O)C2C(=O)CCCC2=O)c([N+](=O)[O-])c1; experiment: as above; format: biochemical, rice; conditions: other: pH 7.0, 30° C., about 20 min
# Source text: as §1
# [6] = substrate: CS(=O)(=O)c1ccc(C(=O)C2C(=O)CCCC2=O)c([N+](=O)[O-])c1; experiment: as above; format: biochemical, rice; conditions: other: pH 7.0, 30° C., about 20 min; remark: listed apart in the source
# Source text: as §1
# [7] = substrate: Cc1ccccc1-n1c(=O)c2c(C)c(C(=O)C3=C(O)CCCC3=O)ccc2n(C)c1=O; experiment: as above; format: biochemical, rice; conditions: other: pH 7.0, 30° C., about 20 min; remark: listed apart in the source
# Source text: as §1
# [8] = Catalytic activity of HSL proteins on HPPD inhibitors (HPLC, substrate consumption); format: biochemical; conditions: 30° C., 10 h, protein 0.5 mg/mL; for Catalytic efficiency (%) Compound A: substrate Compound A 50 μM; for Catalytic efficiency (%) benzobicyclon technical: substrate benzobicyclon technical 50 μM; for Catalytic efficiency (%) Mesotrione: substrate mesotrione 50 μM; for Catalytic efficiency (%) methyl-benquitrione: substrate methyl-benquitrione 50 μM; for Catalytic efficiency (%) pyraquinate technical: substrate pyraquinate technical 50 μM; for Catalytic efficiency (%) tefuryltrione: substrate tefuryltrione 50 μM; for Catalytic efficiency (%) tembotrione: substrate tembotrione 50 μM
# Protocol: (§2) Each sample was replicated three times. • e.
# (§3) Control: refers to the addition of inhibitors to the reaction system, but not the addition of enzymes, which is regarded as the substrate surplus when the inhibitor is not catalyzed.
# (§4) Sample: in the enzyme reaction system, the same volume and the same concentration (50 μM) of the inhibitor was added, and the catalytic efficiency of the enzyme to the inhibitor was observed.
# (§5) Catalytic efficiency=(1−(peak area of substrate in sample)/(peak area of substrate in control))×100%.
# [9] = format: biochemical; conditions: for Catalytic efficiency (%) topramezone: substrate topramezone 50 μM, 30° C., 10 h, protein 0.5 mg/mL; for Catalytic efficiency (%) 30 min / Catalytic efficiency (%) 60 min / Catalytic efficiency (%) 120 min / Catalytic efficiency (%) 300 min / Catalytic efficiency (%) 600 min: topramezone degradation; for Catalytic efficiency (%) 30 min: reaction time 30 min; for Catalytic efficiency (%) 60 min: reaction time 60 min; for Catalytic efficiency (%) 120 min: reaction time 120 min; for Catalytic efficiency (%) 300 min: reaction time 300 min; for Catalytic efficiency (%) 600 min: reaction time 600 min
# Protocol: as §2, §3, §4, §5
# [10] = Enzyme kinetic parameter study (HPLC, Michaelis-Menten fit); format: biochemical
# Source text: as §1
# T2 sequence (A0A7G1K9G4 entry or part of it F140H/L204F/F298L/I335A): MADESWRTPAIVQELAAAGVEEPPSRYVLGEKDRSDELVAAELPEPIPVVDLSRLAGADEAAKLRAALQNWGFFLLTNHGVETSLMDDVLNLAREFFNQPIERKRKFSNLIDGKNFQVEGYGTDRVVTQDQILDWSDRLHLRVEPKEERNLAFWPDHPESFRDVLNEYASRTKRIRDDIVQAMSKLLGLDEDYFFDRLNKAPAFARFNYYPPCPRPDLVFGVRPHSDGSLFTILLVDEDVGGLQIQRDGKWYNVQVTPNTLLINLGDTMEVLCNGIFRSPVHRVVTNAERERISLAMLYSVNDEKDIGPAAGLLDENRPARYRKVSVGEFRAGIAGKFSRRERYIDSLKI
Molecule,Catalytic efficiency (%) Compound A [8] [%],Catalytic efficiency (%) benzobicyclon technical [8] [%],Catalytic efficiency (%) Mesotrione [8] [%],Catalytic efficiency (%) methyl-benquitrione [8] [%],Catalytic efficiency (%) pyraquinate technical [8] [%],Catalytic efficiency (%) tefuryltrione [8] [%],Catalytic efficiency (%) tembotrione [8] [%],Catalytic efficiency (%) topramezone [9] [%],further results
CS(=O)(=O)c1ccc(C(=O)C2C(=O)CCCC2=O)c([N+](=O)[O-])c1 [mesotrione],–,–,–,–,–,–,–,–,affinity and catalytic efficiency (in words) [1]: better affinity and catalytic efficiency
"Cc1nn(C)c(O)c1C(=O)c1ccc2c(c1C)c(=O)n(-c1cccc(Cl)c1)c(=O)n2C [pyraquinate technical, pyraquinate]",–,–,–,–,–,–,–,–,"affinity and catalytic efficiency (in words) ([2]; compared with OsHIS1 wild type and OsHSL1 wild type): superior; Kcat ([2]; pH 7.0, 30° C., about 20 min): 0.00135 s⁻¹"
rice OsHSL1 (SEQ ID NO: 1) mutant OsHSL1_I335F (Oryza sativa Japonica Group; I335F),–,–,–,–,–,–,–,–,Km [3]: 48.4211 µM; kcat [3]: 0.0057 s⁻¹
"rice OsHSL1 wild type, SEQ ID NO: 1 (Oryza sativa Japonica Group)",–,–,–,–,–,–,–,–,Km [3]: 44.0732 µM; kcat [3]: 0.0011 s⁻¹
rice OsHSL1 (SEQ ID NO: 1) mutant OsHSL1_F140H/L204F/F298L/I335A (Oryza sativa Japonica Group; F140H/F298L/I335A/L204F),–,–,–,–,–,–,–,–,Km [4]: 22.6001 µM; kcat [4]: 0.0106 s⁻¹; Km [5]: 23.4659 µM; kcat [5]: 0.0083 s⁻¹
"CS(=O)(=O)c1ccc(C(=O)C2=C(Sc3ccccc3)C3CCC(C3)C2=O)c(Cl)c1 (stereo not drawn) [benzobicyclon technical, benzobicyclon]",–,–,–,–,–,–,–,–,affinity and catalytic efficiency (in words) [1]: better affinity and catalytic efficiency
B1,–,–,–,–,–,–,–,–,Km [6]: 5.5811 µM; kcat [6]: 0.05957 s⁻¹; Km [7]: 16.2456 µM; kcat [7]: 0.0106 s⁻¹
B2,0,46,40,0,17,100,89,100,Km [6]: 27.6770 µM; kcat [6]: 0.0002 s⁻¹; Catalytic efficiency (%) 30 min [9]: 79%; Catalytic efficiency (%) 60 min [9]: 86%; Catalytic efficiency (%) 120 min [9]: 93%; Catalytic efficiency (%) 300 min [9]: 98%; Catalytic efficiency (%) 600 min [9]: 100%
B3,0,44,15,0,24,98,62,100,catalytic efficiency to topramezone versus wild type (in words) ([10]; statement on Table 11): obviously superior to that of OsHSL1 wild type; degradation of topramezone (in words) [9]: can completely degrade topramezone; effect on topramezone degradation versus OsHSL1 wild type (in words) [9]: significantly better effect on topramezone degredation than OsHSL1 wild type; Catalytic efficiency (%) 30 min [9]: 97%; Catalytic efficiency (%) 60 min [9]: 100%; Catalytic efficiency (%) 120 min [9]: 100%; Catalytic efficiency (%) 300 min [9]: 100%; Catalytic efficiency (%) 600 min [9]: 100%
B4,–,–,–,–,–,–,–,–,affinity and catalytic efficiency to pyraquinate technical versus wild types (in words) ([10]; statement on Table 12): superior to that of OsHIS1 wild type and OsHSL1 wild type
B5,47,100,56,35,52,94,0,1,–
B6,98,100,88,90,17,70,55,0,–
B7,35,100,89,23,2,100,36,40,–
